T1: human CD63 (human, UniProt P08962 2-238)
T1 construct: stably transfected in NIH3T3/hCD63; The cell line is named under assay; also called hCD63
T1 sequence: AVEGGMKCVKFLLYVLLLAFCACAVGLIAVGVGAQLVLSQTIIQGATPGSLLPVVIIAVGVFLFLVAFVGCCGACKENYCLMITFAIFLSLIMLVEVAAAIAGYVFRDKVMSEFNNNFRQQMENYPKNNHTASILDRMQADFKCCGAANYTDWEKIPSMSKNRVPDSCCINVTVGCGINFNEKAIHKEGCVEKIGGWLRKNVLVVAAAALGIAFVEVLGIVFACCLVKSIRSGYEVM

B1: H4H11997P2 (antibody, V domains shown)
VH: QVQLVESGGGLVKPGGSLRLSCAASGFTFSDYYMNWIRQAPGKGLEWITYINNGGYTKYYADSVKGRFIISRDNTKNSVHLQMNSLRAEDTAVYYCVRDPRMYYGMDVWGQGTTVTVSS
VL: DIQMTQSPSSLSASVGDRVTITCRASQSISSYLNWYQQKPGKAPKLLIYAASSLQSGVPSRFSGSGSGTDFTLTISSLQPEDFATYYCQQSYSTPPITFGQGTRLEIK
B2: H4H11990P2 (antibody, V domains shown)
VH: QVQLVESGGGLVKPGGSLRLSCATSGFTFTDYFMNWIRQAPGKGLEWVSYISNSGSIRYYADSVRGRFSISRDNAKNSLYLQMSSLRADDTAVYYCVRDPRQIYGMDVWGQGTTVTVSS
VL: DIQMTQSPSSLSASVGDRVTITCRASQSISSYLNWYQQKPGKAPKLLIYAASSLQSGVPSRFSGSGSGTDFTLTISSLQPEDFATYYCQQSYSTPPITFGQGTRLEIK
B3: H4H11992P2 (antibody, V domains shown)
VH: QVQLVESGGGLVKPRGSLRLSCAASGFIFDDYFMNWIRQAPGKGLEWVSYISNSGNTKYYADSVKGRFTISRDNAYNSLYLQMNSLRAEDTAVYYCVRDPRSYYGMDVWGQGTTVTVSS
VL: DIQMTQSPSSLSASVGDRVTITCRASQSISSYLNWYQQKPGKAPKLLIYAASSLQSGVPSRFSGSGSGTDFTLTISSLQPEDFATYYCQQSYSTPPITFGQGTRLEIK
B4: H4H11993P2 (antibody, V domains shown)
VH: QVQLVESGGGLVKPGGSLRLSCAASGFTFSDYYMNWIRQAPGKGLEWVSYINGGGYTMYYADSVKGRFTISRDNAKNSLYLQMNSLRAEDTAVYYCARDRRTTVSIDYWGQGTLVTVSS
VL: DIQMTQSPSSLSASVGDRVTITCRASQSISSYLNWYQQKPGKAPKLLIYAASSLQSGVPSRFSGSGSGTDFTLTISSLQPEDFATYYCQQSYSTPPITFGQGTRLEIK
B5: H4H11995P2 (antibody, V domains shown)
VH: EVQLVESGGALVQPGRSLRLSCAASGFTFDDYAMHWVRQAPGKGLEWVSGISWNSGTMGYADSVKGRFTISRDNAKKSLYLQMNSLRAEDTALYYCGKGLLHQWEVLDYWGQGTLVTVSS
VL: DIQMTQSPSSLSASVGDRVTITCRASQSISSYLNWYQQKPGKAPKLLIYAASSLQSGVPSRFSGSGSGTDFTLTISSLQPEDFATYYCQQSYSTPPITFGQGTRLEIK

One experiment concerns the target T1, human CD63. Briefly: ECL, LNCAP cells. How it is done: (§1) LNCAP cells were determined to have a lower human CD63 copy number than U87MG cells. Non-transfected NIH3T3 cells, which have no detectable expression of human CD63 by fluorescence activated cell sorting (FACS), were included as a negative control.
(§2) Briefly, cell lines were rinsed once in PBS buffer without Ca²⁺/Mg²⁺ and incubated for 10 minutes at 37° C. with Enzyme Free Cell Dissociation Solution (Millipore, Cat #S-004-C) to detach the cells. Cells were then washed once with PBS with Ca²⁺/Mg²⁺ and counted with a Cellometer™ Auto T4 cell counter (Nexcelom Bioscience, LLC). Approximately 2.0×10⁴ NIH3T3/hCD63, LNCAP, U87MG or NIH3T3 cells were seeded separately onto 96-well carbon electrode plates […]) and were then incubated for one hour at 37° C. Nonspecific binding sites were blocked with 2% BSA (w/v) in PBS with Ca²⁺/Mg²⁺ for one hour at room temperature (RT). Solutions containing anti-CD63 antibodies or isotype control antibodies at a range of concentrations (1.7 pM to 100 nM) in 0.5% BSA (w/v) in PBS with Ca²⁺/Mg²⁺, as well as control buffer alone, were then added in duplicate to the plate-bound NIH3T3/hCD63, LNCAP, U87MG or NIH3T3 cells and incubated for one hour at RT. Plates were subsequently washed to remove unbound antibodies using an AquaMax2000 plate washer with a cell washing head (MDS Analytical Technologies). […] Plates were washed and then incubated with Read Buffer (MSD, Cat #R92TD-2) according to the manufacturer's instructions. Luminescent signals were measured using a SECTOR Imager (MSD).
Turning to B1, it took 1.9 nM to reach a half-maximal effect (EC50) and the “binding ratio at 3.7 nM vs NIH3T3” value turned out to be 11 fold.

Turning to B2, a half-maximal response (EC50) required 5.1 nM and the “binding ratio at 3.7 nM vs NIH3T3” value is 6 fold.

On to B3, for which a half-maximal effect (EC50) was put at 3.6 nM and the “binding ratio at 3.7 nM vs NIH3T3” value came out at 4 fold.

With B4, the response was half-maximal at 6.7 nM (EC50) and the “binding ratio at 3.7 nM vs NIH3T3” value is 8 fold.

B5: the EC50 was found to be 55 nM and the “binding ratio at 3.7 nM vs NIH3T3” value turned out to be 5 fold.

For the next experiment, the target named is T1, human CD63. Description: ECL, U87MG cells. How it is done: as §1, §2
Take B1: the EC50 is 1.7 nM and the “binding ratio at 3.7 nM vs NIH3T3” value was 99 fold.

For the molecule B2, the concentration giving a half-maximal response (EC50) amounted to 4.8 nM and the “binding ratio at 3.7 nM vs NIH3T3” value turned out to be 66 fold.

Consider B3, for which the EC50 amounted to 5.5 nM and the “binding ratio at 3.7 nM vs NIH3T3” value came out at 33 fold.

In the case of B4, the response was half-maximal at 17 nM (EC50) and the “binding ratio at 3.7 nM vs NIH3T3” value turned out to be 62 fold.

In the case of B5, the EC50 was determined as 13 nM and the “binding ratio at 3.7 nM vs NIH3T3” value amounted to 61 fold.

Another experiment addresses T1, human CD63. Description: ECL, NIH3T3/hCD63 cells. On the procedure: as §1, §2
For B1, the EC50 turned out to be 0.94 nM and the “binding ratio at 3.7 nM vs NIH3T3” value worked out at 266 fold.

For B2, the EC50 is 0.93 nM and the “binding ratio at 3.7 nM vs NIH3T3” value was determined as 168 fold.

As to B3, a half-maximal response (EC50) required 1.5 nM and the “binding ratio at 3.7 nM vs NIH3T3” value stood at 87 fold.

With B4, the EC50 was 2.5 nM and the “binding ratio at 3.7 nM vs NIH3T3” value worked out at 227 fold.

Regarding B5, the EC50 turned out to be 5 nM and the “binding ratio at 3.7 nM vs NIH3T3” value was found to be 212 fold.

Another experiment deals with T2, recombinant human CD63 extracellular loop 2 expressed with a C-terminal Myc-Myc-hexahistidine (human).
T2 construct: also called hCD63 EC loop 2-MMH; human CD63 EC loop 2-MMH
T2 sequence (chain, as listed by the source limits assumed): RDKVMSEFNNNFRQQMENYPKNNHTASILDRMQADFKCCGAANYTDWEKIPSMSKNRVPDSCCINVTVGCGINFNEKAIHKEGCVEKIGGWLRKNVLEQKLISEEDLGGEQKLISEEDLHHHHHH
Description: SPR Biacore, mAb captured, 25C. How it is done: (§3) Equilibrium dissociation constants (KD) for different CD63 (EC2) loop reagents binding to purified anti-CD63 monoclonal antibodies were determined using a real-time surface plasmon resonance based Biacore T200 biosensor or Biacore 2000 biosensor. All binding studies were performed in 10 mM HEPES, 150 mM NaCl, 3 mM EDTA, and 0.05% v/v Surfactant Tween-20, pH 7.4 (HBS-ET) running buffer at 25° C. and 37° C. The Biacore CMS sensor chip surface was first derivatized by amine coupling with either a rabbit anti-mouse Fc specific polyclonal antibody (GE Healthcare, Cat #BR100838) or an anti-human Fab kit (GE Healthcare, Cat #28958325) to capture anti-CD63 monoclonal antibodies. […] The association rate (Kₐ) and dissociation rate (kd) were determined by fitting the real-time binding sensorgrams to a 1:1 binding model with mass transport limitation using Scrubber 2.0c curve-fitting software. Binding dissociation equilibrium constant (KD) and dissociative half-life (t½) were calculated from the kinetic rates as: […]
(§4) Binding kinetics parameters for human CD63 EC loop 2 protein binding to different anti-CD63 monoclonal antibodies of the invention at 25° C. and 37° C. are shown in Tables 6 through 9.
With B1, the “100 nM Ag Bound (RU)” value stood at 106 RU, the Kd amounted to 19.9 nM, the koff amounted to 0.00371 s⁻¹ and the kon worked out at 186000 M⁻¹ s⁻¹. Besides, the t1/2 turned out to be 3.1 min.

For B2, the “100 nM Ag Bound (RU)” value came out at 94 RU, the Kd stood at 30.6 nM, the koff stood at 0.00591 s⁻¹ and the on-rate constant (kon) amounted to 193000 M⁻¹ s⁻¹. Moreover, the t1/2 was found to be 2 min.

For the molecule B3, the “100 nM Ag Bound (RU)” value was 53 RU, the Kd stood at 213 nM, the koff was found to be 0.0267 s⁻¹ and the kon was 125000 M⁻¹ s⁻¹. Also, the t1/2 worked out at 0.4 min.

For the molecule B4, the “100 nM Ag Bound (RU)” value was 10 RU.

As to B5, the “100 nM Ag Bound (RU)” value was 8 RU.

In another experiment the target is T3, recombinant human CD63 extracellular loop 2 expressed with a C-terminal human Fc tag (human).
T3 construct: also called hCD63 EC loop 2-hFc; human CD63 EC loop 2-Fc
T3 sequence (chain, as listed by the source limits assumed): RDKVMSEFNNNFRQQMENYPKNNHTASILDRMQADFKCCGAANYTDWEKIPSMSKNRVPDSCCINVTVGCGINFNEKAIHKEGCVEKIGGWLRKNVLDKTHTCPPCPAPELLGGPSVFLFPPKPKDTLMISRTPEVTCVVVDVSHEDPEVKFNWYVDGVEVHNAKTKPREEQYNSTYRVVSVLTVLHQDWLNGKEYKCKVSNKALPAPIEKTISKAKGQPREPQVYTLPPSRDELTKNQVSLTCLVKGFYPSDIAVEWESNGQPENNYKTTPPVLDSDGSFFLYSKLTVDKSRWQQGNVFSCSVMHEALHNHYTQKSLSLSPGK
Briefly: SPR Biacore, mAb captured, 25C. On the procedure:
as §3, §4
In the case of B1, the “100 nM Ag Bound (RU)” value was 291 RU, the Kd was found to be 0.149 nM, the koff was found to be 6.2e-05 s⁻¹ and the kon was found to be 417000 M⁻¹ s⁻¹. The t1/2 was determined as 186 min.

B2: the “100 nM Ag Bound (RU)” value is 275 RU, the Kd was 0.209 nM, the dissociation rate constant (koff) was found to be 8.99e-05 s⁻¹ and the kon worked out at 430000 M⁻¹ s⁻¹. The t1/2 worked out at 128 min.

As to B3, the “100 nM Ag Bound (RU)” value is 304 RU, the Kd worked out at 0.401 nM, the koff was 0.000257 s⁻¹ and the kon was determined as 641000 M⁻¹ s⁻¹. Further, the t1/2 turned out to be 45 min.

For B4, the “100 nM Ag Bound (RU)” value was determined as 194 RU, the Kd worked out at 2 nM, the koff turned out to be 0.000728 s⁻¹ and the kon worked out at 364000 M⁻¹ s⁻¹. Also, the t1/2 was 16 min.

Turning to B5, the “100 nM Ag Bound (RU)” value is 198 RU, the Kd turned out to be 10.1 nM, the koff stood at 0.00555 s⁻¹ and the kon was 552000 M⁻¹ s⁻¹. Moreover, the t1/2 amounted to 2 min.

In the next experiment the target is T2, recombinant human CD63 extracellular …. Briefly: SPR Biacore, mAb captured, 37C. How it is done:
as §3, §4
For B1, the “100 nM Ag Bound (RU)” value is 74 RU, the Kd stood at 145 nM, the koff stood at 0.0192 s⁻¹ and the kon came to 132000 M⁻¹ s⁻¹. Further, the t1/2 stood at 0.6 min.

On to B2, for which the “100 nM Ag Bound (RU)” value turned out to be 81 RU, the Kd came to 124 nM, the koff amounted to 0.0198 s⁻¹ and the kon turned out to be 160000 M⁻¹ s⁻¹. Also, the t1/2 worked out at 0.6 min.

Take B3: the “100 nM Ag Bound (RU)” value came to 30 RU, the Kd was determined as 12300 nM, the koff was 0.0814 s⁻¹ and the kon is 6600 M⁻¹ s⁻¹. For the same molecule, the t1/2 was determined as 0.1 min.

Turning to B4, the “100 nM Ag Bound (RU)” value came to 3 RU.

For the molecule B5, the “100 nM Ag Bound (RU)” value came to 3 RU, the Kd is 1620 nM, the koff was 0.128 s⁻¹ and the kon stood at 79400 M⁻¹ s⁻¹. Besides, the t1/2 was 0.1 min.

The target of another experiment is T3, recombinant human CD63 extracellular …. Briefly: SPR Biacore, mAb captured, 37C. How it is done: as §3, §4
B1: the “100 nM Ag Bound (RU)” value stood at 342 RU, the Kd stood at 0.045 nM, the koff was found to be 1.91e-05 s⁻¹ and the kon worked out at 425000 M⁻¹ s⁻¹. The t1/2 came out at 603 min.

As to B2, the “100 nM Ag Bound (RU)” value turned out to be 338 RU, the Kd was 0.104 nM, the koff worked out at 4.96e-05 s⁻¹ and the kon was 482000 M⁻¹ s⁻¹. In addition, the t1/2 is 233 min.

Regarding B3, the “100 nM Ag Bound (RU)” value is 358 RU, the Kd came to 1.05 nM, the koff amounted to 0.000682 s⁻¹ and the kon came to 647000 M⁻¹ s⁻¹. Moreover, the t1/2 was 17 min.

Regarding B4, the “100 nM Ag Bound (RU)” value came out at 156 RU, the Kd was 7.92 nM, the koff worked out at 0.00457 s⁻¹ and the kon worked out at 577000 M⁻¹ s⁻¹. The t1/2 was found to be 3 min.

With B5, the “100 nM Ag Bound (RU)” value worked out at 116 RU, the Kd turned out to be 14.5 nM, the koff was 0.0188 s⁻¹ and the kon was 1.29e+06 M⁻¹ s⁻¹. In addition, the t1/2 was 1 min.

For the origin of these results see patent US20210079109A1 (Regeneron, published 2021).
